# Data taken from patent US20130164309A1 (RESEARCH FOUNDATION OF STATE UNIVERSITY OF NEW YORK, published 2013).
# Residue numbers refer to the chain shown, from its start. Numbers in names are those of the source.
# T1: TCblR 32-233-mycHis (human, UniProt Q9NPF0 32-233)
# T1 construct: Secreted, expressed in HEK293 cells, used as culture medium; also called extracellular TCblR in pcDNA3.1 (-) mycHisA
# T1 sequence: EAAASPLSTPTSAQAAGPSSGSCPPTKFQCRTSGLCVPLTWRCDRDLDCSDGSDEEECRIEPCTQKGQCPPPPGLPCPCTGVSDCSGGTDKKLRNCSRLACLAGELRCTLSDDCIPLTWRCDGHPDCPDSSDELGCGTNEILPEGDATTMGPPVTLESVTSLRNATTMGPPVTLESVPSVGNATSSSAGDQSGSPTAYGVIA
# T2: TC-Cbl (recombinant human transcobalamin saturated with cobalamin) (human, UniProt P20062 19-427)
# T2 construct: also called holo-TC; holoTc
# T2 sequence (looked up): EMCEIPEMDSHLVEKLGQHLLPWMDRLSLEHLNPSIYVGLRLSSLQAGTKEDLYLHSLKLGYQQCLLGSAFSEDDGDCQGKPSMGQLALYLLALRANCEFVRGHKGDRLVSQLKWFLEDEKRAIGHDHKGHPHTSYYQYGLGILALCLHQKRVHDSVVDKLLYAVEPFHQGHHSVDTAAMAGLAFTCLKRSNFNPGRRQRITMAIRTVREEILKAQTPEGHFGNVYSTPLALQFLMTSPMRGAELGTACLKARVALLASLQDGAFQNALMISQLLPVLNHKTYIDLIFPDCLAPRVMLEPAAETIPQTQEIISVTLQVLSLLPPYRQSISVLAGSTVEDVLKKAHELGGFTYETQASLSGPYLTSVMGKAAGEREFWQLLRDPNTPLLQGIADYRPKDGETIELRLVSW
# B1: mAb 1-25 (antibody, V domains shown)
# VH: DVQLQESGPDLVKPSQSLSITCTVTGYSITSDYSWHWIRQFPGNKLEWMGYIHSSGITNYNPSLKSRISITRDTSKNQFFLHLSSMTNEDTATYYCTRPPVVTRYFDVWGAGTTVTVSS
# VL: DIVMTQSPSSLTVTAGEKVTMSCKSSQGLLDSGNQKNYLTWYQQKPGQPPKLLIYWASTRKSGVPDRFTGSGSGTDFTLTISSVQAEDLAVYYCQNDYTYPLTFGAGTKLELK
# notes: also called TCblRKB1-25
# B2: truncated TCblR 32-149 (receptor)
# chain: not shown
# notes: Secreted C-terminal deletion of the extracellular domain, expressed in HEK293 cells, used as culture medium; also called aa 150-233 deleted
# B3: mAb 1-23 (antibody, V domains shown)
# VH: DVQLQESGPGLVKPSQSLSLTCTVTGYSITSDYAWNWIRQFPGNKLEWMGYIAYTNRTFYTPSLESRISITRDTSKNQFFLQLNSVTTEDTGTYYCARNSGKTYGFTYWGQGTLVTVSA
# VL: DIVMSQSPSSLVVSIGEKVTMSCKSSQRLLYSANQKNYLAWYQQKPGQSPKLLIYWASTRESGVPDRFTGSGSGTDFTLTISSVRAEDLALYYCQQFYNYPLTFGSGTKLEIK
# B4: mAb 1-19 (antibody, V domains shown)
# VH: DVQLQESGPGLVKPSQSLSLTCTVLGYSITSDYAWNWIRQFPGNKLEWMGYISFSGNIRYNPSLESRISITRDTSKSQFFLQLNSVTTEDRGTYYCARAGLGRVFYFDYWGQGTALTVSS
# VL: DIVMSQSPSSLAVSVGEKVTMSCKSSQSLLYSSNQKNYLAWYQQKPGQSPQLLIFRASTRESGVPDRFTGSGSGTDFTLTISSVKPEDLAVYFCQQYYNYPFTFGSGTTLEIK
# notes: also called TCblRKB 1-19; monoclonal antibody 1-19
# B5: truncated TCblR 32-183 (receptor)
# chain: not shown
# notes: Secreted C-terminal deletion of the extracellular domain, expressed in HEK293 cells, used as culture medium; also called C-terminal 49 aa deleted (two N-glycosylation sites removed)
# B6: TCblR with the cytoplasmic tail deleted, on HEK293 cells (receptor)
# chain: EAAASPLSTPTSAQAAGPSSGSCPPTKFQCRTSGLCVPLTWRCDRDLDCSDGSDEEECRIEPCTQKGQCPPPPGLPCPCTGVSDCSGGTDKKLRNCSRLACLAGELRCTLSDDCIPLTWRCDGHPDCPDSSDELGCGTNEILPEGDATTMGPPVTLESVTSLRNATTMGPPVTLESVPSVGNATSSSAGDQSGSPTAYGVIAAAAVLSASLVTATLLLL
# notes: Limits derived; also called TCblR without the cytoplasmic domain; membrane-anchored receptor
# B7: TCblR 32-137, 166-233-mycHis (receptor, not shown: small tags and cut ends)
# chain: EAAASPLSTPTSAQAAGPSSGSCPPTKFQCRTSGLCVPLTWRCDRDLDCSDGSDEEECRIEPCTQKGQCPPPPGLPCPCTGVSDCSGGTDKKLRNCSRLACLAGELGCGTNEILPEGDATTMGPPVTLESVTSLRNATTMGPPVTLESVPSVGNATSSSAGDQSGSPTAYGVIA
# notes: Secreted, expressed in HEK293 cells, used as culture medium; also called second LDLR-A domain removed
# B8: TCblR 32-52, 64-233-mycHis (receptor, not shown: small tags and cut ends)
# chain: EAAASPLSTPTSAQAAGPSSGSGLCVPLTWRCDRDLDCSDGSDEEECRIEPCTQKGQCPPPPGLPCPCTGVSDCSGGTDKKLRNCSRLACLAGELRCTLSDDCIPLTWRCDGHPDCPDSSDELGCGTNEILPEGDATTMGPPVTLESVTSLRNATTMGPPVTLESVPSVGNATSSSAGDQSGSPTAYGVIA
# notes: Secreted, expressed in HEK293 cells, used as culture medium; also called p53-63del; N-terminal 11 residues (aa 53-63) of the first LDLR-A domain deleted
# B9: recombinant extracellular domain of human TCblR (aa 32-233), untagged secreted form (receptor)
# chain: T1 sequence
# notes: Expressed in HEK 293 cells and secreted into the culture medium; also called TCblR ECD; extracellular TCblR
# B10: extracellular TCblR mycHis mutant pDE163, 164>LL (receptor, not shown: small tags and cut ends)
# chain: T1 sequence with D132L, E133L
# notes: Made on the extracellular TCblR cDNA in pcDNA3.1 (-) mycHisA, expressed in HEK293 cells; also called D163L, E164L
# B11: extracellular TCblR mycHis mutant pDE85, 86>LL (receptor, not shown: small tags and cut ends)
# chain: T1 sequence with D54L, E55L
# notes: Made on the extracellular TCblR cDNA in pcDNA3.1 (-) mycHisA, expressed in HEK293 cells; also called D85L, E86L
# What was measured:
# [1] = target: T3, TCblR 32-94, 142-233-mycHis (human, UniProt Q9NPF0 32-233); assay: sandwich ELISA, mAb as capture, TCblR construct in HEK293 medium; +++ OD 2-3, ++ OD 1-2, + OD 0.5-1, - OD <0.5
# T3 construct: also called TCblR without the CUB domain; region between the two LDLR-A domains deleted
# [2] = target: B8; assay: as above
# [3] = target: B9; assay: as above
# TCblR 32-233-mycHis = target: T1, TCblR 32-233-mycHis; assay: as above
# truncated TCblR 32-183 [4] = target: B5; assay: as above
# truncated TCblR 32-149 = target: B2; assay: sandwich ELISA, mAb as capture
# Procedure: (§1) A sandwich ELISA based assay was utilized to identify the antigen binding epitopes by reacting the antibodies with various truncated forms of the receptor. […] Culture medium containing the truncated TCblR was incubated overnight and the captured TCblR antigen was detected with a goat polyclonal antibody (anti-8D6, R&D Systems) to the antigen. Peroxidase-labeled horse anti-goat IgG (Vector) was used for detecting the binding of the polyclonal antibody as described above.
# (§2) The recombinant extracellular domain of TCblR and its various carboxy terminal deletion constructs provided the antigens to map the antibody binding sites on this protein. The sandwich assay developed herein utilized purified mAbs immobilized in ELISA plates to capture the TCblR antigen in culture medium, which was then reacted with a polyclonal goat anti-human TCblR to identify the captured antigen. This strategy provided a detailed profile of antibodies binding to truncated forms of the receptor.
# [5] = target: B7; assay: sandwich ELISA, mAb as capture
# Procedure: as §1, §2
# [6] = target: T2, TC-Cbl (recombinant human …); assay: radiolabelled TC-Cbl binding, indirect competition with full-length secreted TCblR
# Procedure: (§3) The matrix is pelleted by centrifuging at 1,000 g for 5 min and washed twice with 1 ml assay buffer.
# [7] = target: B7; assay: sandwich ELISA, mAb as capture, TCblR construct in HEK293 medium; +++ OD 2-3, ++ OD 1-2, + OD 0.5-1, - OD <0.5
# truncated TCblR 32-183 [8] = target: B5; assay: sandwich ELISA, mAb as capture
# Procedure: as §1, §2
# [9] = target: T2, TC-Cbl (recombinant human …); assay: binding and internalization of TC-[57Co]Cbl by transfected HEK293 cells
# Procedure: Cells (0.5×10⁶) were seeded in complete DMEM with 10% FBS and 2 mM glutamine in six-well plates. […] After 1 h incubation at 37° C., medium was removed and cell layer was washed twice with 2 ml HBSS. Then 0.3 ml Trypsin/EDTA was added to the wells and incubated for 10 min at 37° C. followed by1ml HBSS/5 mM EDTA. The detached cells were collected by centrifugation for 5 min, at 3,000 rpm, 4° C.
# [10] = target: T2, TC-Cbl (recombinant human …); assay: radiolabelled TC-Cbl binding to deletion constructs
# [11] = target: T2, TC-Cbl (recombinant human …); assay: radiolabelled TC-Cbl binding, WGA-agarose separation
# Procedure: (§4) The intact secreted form of extracellular TCblR served as the positive control and normal HEK293 culture medium served as the negative control.
# as §3
# [12] = target: T2, TC-Cbl (recombinant human …); assay: radiolabelled TC-Cbl binding to mutated secreted receptor
# Source text: as §4
# HEK293 cells were transfected with the mutated constructs to produce mutated receptor proteins.
binder,measurement,setting,value
B1,OD,[1],0.5 to 1 od
same,OD,[2],2 to 3 od
same,OD,[3],1 to 2 od
same,OD,TCblR 32-233-mycHis,1 to 2 od
same,OD,truncated TCblR 32-183 [4],2 to 3 od
same,OD,truncated TCblR 32-149,< 0.5 od
same,OD,[5],< 0.5 od
B2,binding result,[6],no binding
B3,OD,[1],1 to 2 od
same,OD,[2],1 to 2 od
same,OD,[7],1 to 2 od
same,OD,[3],1 to 2 od
same,OD,TCblR 32-233-mycHis,1 to 2 od
same,OD,truncated TCblR 32-149,< 0.5 od
same,OD,truncated TCblR 32-183 [8],< 0.5 od
B4,OD,[1],1 to 2 od
same,OD,[2],2 to 3 od
same,OD,[7],1 to 2 od
same,OD,[3],1 to 2 od
same,OD,TCblR 32-233-mycHis,2 to 3 od
same,OD,truncated TCblR 32-149,< 0.5 od
same,OD,truncated TCblR 32-183 [8],< 0.5 od
B5,binding result,[6],binds
B6,binding result,[9],binds
B7,binding result,[10],no binding
B8,binding result,[11],no binding
B9,binding result,[11],binds
B10,binding result,[12],no binding
B11,binding result,[12],no binding
